Results published in article PMC11297201.

Target: β-arrestin2 (UniProt P32121)
Test: BRET, MOR-Nluc and β-arrestin2-Venus
Conditions: for other: Emax, vehicle-subtracted BRET ratio: reference: vehicle

Substance: mu-opioid receptor (MOR, mMOR) (from UniProt P42866) DAMGO, 10 min
- other: Emax, vehicle-subtracted BRET ratio (sites T370,S375,T376,T379): 0.07 BRET ratio

Substance: mu-opioid receptor (MOR, mMOR) (from UniProt P42866) morphine
- percent of reference (reference: DAMGO, sites T376,T379): weaker; reference 100

Substance: mu-opioid receptor (MOR, mMOR) (from UniProt P42866) morphine, 10 min
- other: Emax, vehicle-subtracted BRET ratio (sites S375): 0.008 BRET ratio
